Data published in publication PMC5992149.

Molecular target: receptor for advanced glycation end products (human (endogenous in MDA-MB-231)) (UniProt Q15109)
Sequence of UniProt Q15109 (Q15109 23-404): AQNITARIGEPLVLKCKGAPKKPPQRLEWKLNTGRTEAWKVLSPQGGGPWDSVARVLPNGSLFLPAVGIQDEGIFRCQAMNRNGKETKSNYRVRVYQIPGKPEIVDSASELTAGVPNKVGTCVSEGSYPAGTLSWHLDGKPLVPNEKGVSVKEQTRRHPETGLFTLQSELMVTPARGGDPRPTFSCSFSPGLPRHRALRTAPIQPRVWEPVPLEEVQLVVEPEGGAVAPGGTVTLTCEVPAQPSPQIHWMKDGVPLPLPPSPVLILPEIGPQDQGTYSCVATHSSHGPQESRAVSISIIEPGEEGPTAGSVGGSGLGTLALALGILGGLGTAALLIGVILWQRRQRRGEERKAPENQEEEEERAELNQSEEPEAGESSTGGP

DNA fragmentation of hyperacetylated MDA-MB-231 cells treated with rh Ac-APE1/Ref-1 after pretreatment with anti-APE1/Ref-1 antibody (2 µg, 2 h), against anti-IgG treated cells: 35%
Substance: recombinant human Ac-APE1/Ref-1 (from UniProt P27695 1-318) (natural protein)
cell viability of hyperacetylated MDA-MB-231 cells treated with rh Ac-APE1/Ref-1 after pretreatment with anti-APE1/Ref-1 antibody (2 µg, 2 h): 72.8%
